How the values were obtained:
[1] = molecular target: HIV-1 CH505 transmitted/founder gp120 Env (HIV-1); test: competition ELISA, blocking of CH239 binding to CH505 TF gp120
[2] = molecular target: HIV-1 CH505 transmitted/founder gp120 Env (HIV-1); test: competition ELISA, blocking of CH235 binding to CH505 TF gp120
[3] = molecular target: HIV-1 CH505 transmitted/founder gp120 Env (HIV-1); test: competition ELISA, blocking of CH236 binding to CH505 TF gp120
[4] = molecular target: Jo-1 (UniProt P12081); test: AtheNA, Ab 12.5 ug/ml
Chain of Jo-1 (P12081 whole entry): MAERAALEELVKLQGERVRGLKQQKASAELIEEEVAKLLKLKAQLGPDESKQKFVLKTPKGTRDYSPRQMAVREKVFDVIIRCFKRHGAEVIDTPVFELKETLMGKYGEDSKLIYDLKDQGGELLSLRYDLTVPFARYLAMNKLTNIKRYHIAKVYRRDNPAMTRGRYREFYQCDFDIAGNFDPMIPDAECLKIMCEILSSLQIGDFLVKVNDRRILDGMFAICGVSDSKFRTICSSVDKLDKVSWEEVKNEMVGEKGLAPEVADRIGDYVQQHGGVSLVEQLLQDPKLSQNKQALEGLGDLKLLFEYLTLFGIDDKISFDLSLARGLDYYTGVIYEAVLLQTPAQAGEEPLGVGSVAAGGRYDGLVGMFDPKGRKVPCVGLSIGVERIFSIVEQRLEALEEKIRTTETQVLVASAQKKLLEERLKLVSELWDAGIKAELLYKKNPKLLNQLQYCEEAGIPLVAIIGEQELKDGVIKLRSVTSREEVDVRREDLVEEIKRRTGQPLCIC

[5] = molecular target: Centromere B (UniProt P07199); test: AtheNA, Ab 12.5 ug/ml
Chain of Centromere B (P07199 whole entry): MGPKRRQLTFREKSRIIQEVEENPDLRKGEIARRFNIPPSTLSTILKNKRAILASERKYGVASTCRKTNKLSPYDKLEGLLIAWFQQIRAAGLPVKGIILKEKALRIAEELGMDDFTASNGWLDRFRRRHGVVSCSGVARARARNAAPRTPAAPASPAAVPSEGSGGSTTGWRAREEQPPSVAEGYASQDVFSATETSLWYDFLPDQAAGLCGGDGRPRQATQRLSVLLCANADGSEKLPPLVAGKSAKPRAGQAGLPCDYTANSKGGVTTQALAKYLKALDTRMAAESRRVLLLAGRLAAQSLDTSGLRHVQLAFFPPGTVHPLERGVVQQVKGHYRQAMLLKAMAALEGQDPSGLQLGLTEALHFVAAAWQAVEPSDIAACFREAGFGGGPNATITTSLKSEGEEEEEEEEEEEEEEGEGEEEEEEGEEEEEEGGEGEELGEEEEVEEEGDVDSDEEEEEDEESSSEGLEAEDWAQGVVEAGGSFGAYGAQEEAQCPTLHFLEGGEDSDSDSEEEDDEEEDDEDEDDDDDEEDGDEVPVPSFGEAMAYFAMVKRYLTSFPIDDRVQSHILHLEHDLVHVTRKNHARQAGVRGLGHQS

[6] = molecular target: Sm (Smith antigen); test: AtheNA, Ab 12.5 ug/ml
[7] = molecular target: SSA; test: AtheNA, Ab 12.5 ug/ml
[8] = molecular target: Scl-70 (UniProt P11387); test: AtheNA, Ab 12.5 ug/ml
Chain of Scl-70 (P11387 whole entry): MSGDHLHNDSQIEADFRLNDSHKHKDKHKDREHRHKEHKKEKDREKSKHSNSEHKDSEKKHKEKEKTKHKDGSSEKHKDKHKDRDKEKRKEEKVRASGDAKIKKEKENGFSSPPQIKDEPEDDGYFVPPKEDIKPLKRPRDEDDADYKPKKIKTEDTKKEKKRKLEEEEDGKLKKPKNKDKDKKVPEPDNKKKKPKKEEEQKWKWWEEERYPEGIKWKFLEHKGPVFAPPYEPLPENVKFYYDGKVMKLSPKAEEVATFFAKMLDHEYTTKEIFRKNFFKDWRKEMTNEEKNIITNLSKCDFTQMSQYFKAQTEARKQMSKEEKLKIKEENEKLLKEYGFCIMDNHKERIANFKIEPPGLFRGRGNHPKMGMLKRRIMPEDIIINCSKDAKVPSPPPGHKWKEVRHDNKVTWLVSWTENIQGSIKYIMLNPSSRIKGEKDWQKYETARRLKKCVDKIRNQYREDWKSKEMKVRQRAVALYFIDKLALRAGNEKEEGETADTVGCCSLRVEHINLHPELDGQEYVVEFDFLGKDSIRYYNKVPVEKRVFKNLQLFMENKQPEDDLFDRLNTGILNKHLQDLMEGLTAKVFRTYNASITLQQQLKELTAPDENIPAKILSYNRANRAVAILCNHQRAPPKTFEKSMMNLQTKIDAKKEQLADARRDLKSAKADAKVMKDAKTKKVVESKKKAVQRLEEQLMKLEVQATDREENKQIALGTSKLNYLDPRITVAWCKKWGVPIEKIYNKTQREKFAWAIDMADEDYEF

[9] = molecular target: Histones; test: AtheNA, Ab 12.5 ug/ml
[10] = molecular target: CH505w136.B2D8gp120/293F (HIV-1); test: direct-binding ELISA
[11] = molecular target: CH505w136.B8D8gp120 (HIV-1); test: direct-binding ELISA
[12] = molecular target: CH505.M19D8gp120; test: direct-binding ELISA
[13] = molecular target: CH505w160.C14D8gp120 (HIV-1); test: direct-binding ELISA
[14] = molecular target: CH505.M10D8gp120; test: direct-binding ELISA
[15] = molecular target: CH505.TF mutant gp120 M8 (HIV-1); test: direct-binding ELISA
[16] = molecular target: CH505.M11D8gp120/293F; test: direct-binding ELISA
[17] = molecular target: CH505w136.B5D8gp120 (HIV-1); test: direct-binding ELISA
[18] = molecular target: CH505w136.B12D8gp120 (HIV-1); test: direct-binding ELISA
[19] = molecular target: CH505.TF mutant gp120 M20 (HIV-1); test: direct-binding ELISA
[20] = molecular target: CH505w136.B3D8gp120/293F (HIV-1); test: direct-binding ELISA
[21] = molecular target: CH505w160.C4D8gp120 (HIV-1); test: direct-binding ELISA
[22] = molecular target: CH505w160.T2D8gp120 (HIV-1); test: direct-binding ELISA
[23] = molecular target: CH505w136.B29D8gp120 (HIV-1); test: direct-binding ELISA
[24] = molecular target: CH505w136.B20D8gp120 (HIV-1); test: direct-binding ELISA
[25] = molecular target: CH505w160.C2D8gp120 (HIV-1); test: direct-binding ELISA
[26] = molecular target: CH505w136.B10D8gp120 (HIV-1); test: direct-binding ELISA
[27] = molecular target: CH505w160.D1D8gp120 (HIV-1); test: direct-binding ELISA
[28] = molecular target: CH505.M7D8gp120/293F; test: direct-binding ELISA
[29] = molecular target: CH505w136.B4D8gp120 (HIV-1); test: direct-binding ELISA
[30] = molecular target: CH505w160.T4D8gp120/293F (HIV-1); test: direct-binding ELISA
[31] = molecular target: CH505_w137V201B12.D11gp120 (HIV-1); test: direct-binding ELISA
[32] = molecular target: CH505.M9D8gp120/293F; test: direct-binding ELISA
[33] = molecular target: CH505w160.C11D8gp120 (HIV-1); test: direct-binding ELISA
[34] = molecular target: CH505w160.C12D8gp120 (HIV-1); test: direct-binding ELISA
[35] = molecular target: CH505_w137V209C12.D11gp120 (HIV-1); test: direct-binding ELISA
[36] = molecular target: CH505w160.D5D8gp120/293F (HIV-1); test: direct-binding ELISA
[37] = molecular target: CH505.M21D8gp120/293F; test: direct-binding ELISA
[38] = molecular target: CH505w136.B18D8gp120 (HIV-1); test: direct-binding ELISA
[39] = molecular target: CH505w136.B36D8gp120 (HIV-1); test: direct-binding ELISA
[40] = molecular target: CH505w160.A1D8gp120 (HIV-1); test: direct-binding ELISA
[41] = molecular target: CH505.M5D8gp120293F; test: direct-binding ELISA
[42] = molecular target: CH505w136.B27D8gp120 (HIV-1); test: direct-binding ELISA
[43] = molecular target: CH505.TF mutant gp120 M6 (HIV-1); test: direct-binding ELISA
[44] = molecular target: HIV-1 CH505 transmitted/founder gp120 Env (HIV-1); test: competition ELISA; competitor biotinylated CH241 on CH505 TF gp120
[45] = molecular target: HIV-1 CH505 transmitted/founder gp120 Env (HIV-1); test: competition ELISA; competitor biotinylated CH240 on CH505 TF gp120

Question: CH106 (antibody) was tested. Which IC50 [1] did it give?
Answer: 4.6 µg/mL

Question: And the IC50 [2]?
Answer: 4.3 µg/mL

Question: What about the IC50 [3] of the same substance?
Answer: 6.8 µg/mL

Question: What about the AtheNA signal (relative luminescence units) [4] of the same substance?
Answer: 3

Question: And the AtheNA signal (relative luminescence units) [5]?
Answer: 2

Question: And the AtheNA signal (relative luminescence units) [6]?
Answer: 4

Question: And the AtheNA signal (relative luminescence units) [7]?
Answer: 11

Question: What about the AtheNA signal (relative luminescence units) [8] of the same substance?
Answer: 3

Question: And the AtheNA signal (relative luminescence units) [9]?
Answer: 2

Question: What about the LogAUC [10] of the same substance?
Answer: 12.7

Question: And the LogAUC [11]?
Answer: 11.7

Question: What about the LogAUC [12] of the same substance?
Answer: 12.2

Question: And the LogAUC [13]?
Answer: 6.94

Question: And the LogAUC [14]?
Answer: 11.8

Question: And the LogAUC [15]?
Answer: 10.2

Question: And the LogAUC [16]?
Answer: 12.8

Question: What about the LogAUC [17] of the same substance?
Answer: 10.9

Question: And the LogAUC [18]?
Answer: 11.9

Question: What about the LogAUC [19] of the same substance?
Answer: 10.7

Question: And the LogAUC [20]?
Answer: 12.6

Question: And the LogAUC [21]?
Answer: 6.8

Question: What about the LogAUC [22] of the same substance?
Answer: 6.16

Question: And the LogAUC [23]?
Answer: 12

Question: And the LogAUC [24]?
Answer: 12.1

Question: What about the LogAUC [25] of the same substance?
Answer: 9.29

Question: And the LogAUC [26]?
Answer: 8.97

Question: And the LogAUC [27]?
Answer: 7.06

Question: What about the LogAUC [28] of the same substance?
Answer: 11

Question: What about the LogAUC [29] of the same substance?
Answer: 11.8

Question: What about the LogAUC [30] of the same substance?
Answer: 12.3

Question: What about the LogAUC [31] of the same substance?
Answer: 12.5

Question: And the LogAUC [32]?
Answer: 11

Question: And the LogAUC [33]?
Answer: 8.15

Question: And the LogAUC [34]?
Answer: 12.2

Question: And the LogAUC [35]?
Answer: 12.2

Question: What about the LogAUC [36] of the same substance?
Answer: 5.64

Question: What about the LogAUC [37] of the same substance?
Answer: 11.5

Question: What about the LogAUC [38] of the same substance?
Answer: 13.3

Question: What about the LogAUC [39] of the same substance?
Answer: 13.1

Question: And the LogAUC [40]?
Answer: 7.6

Question: And the LogAUC [41]?
Answer: 8.37

Question: What about the LogAUC [42] of the same substance?
Answer: 11.2

Question: What about the LogAUC [43] of the same substance?
Answer: 12.6

Question: What about the IC50 [44] of the same substance?
Answer: 14.3 µg/mL

Question: What about the IC50 [45] of the same substance?
Answer: 2.3 µg/mL

— patent US10450368
